This note sets out measurements from patent publication US20250368684A1, “NEW EGFRVIII-BINDING PEPTIDES, CONJUGATES AND USES THEREOF” (NANOTHERA BIOSCIENCES, INC., priority 2021, published 2025).

*: point of attachment. FITC = O=C1OC2(c3ccc(O)cc3Oc3cc(O)ccc32)c2ccc(NC(=S)*)cc21; Ahx = NCCCCCC(=O)O

For test [1], the target named is T1, hEGFRvIII (Homo sapiens, UniProt P00533, DELINS30-297G).
T1 construct: using purified and active extracellular domain for EGFRvIII protein; purchased Sino Biological
Briefly: Phage display biopanning against hEGFRvIII with NGS enrichment analysis. It is filed as binding. The following applies: over rounds of biopanning. The procedure:
Ph.D.-12™ Phage Display Peptide Library Kit was purchased from New England Biolabs Inc. (Beverly, MA, USA). Biopanning procedures were done according to the manufacturer's instruction with certain modifications. Briefly, a 96-well plate was coated with 150 μL hEGFRvIII (Sino Biological) (in the first two rounds at 100 μg/mL, the third round at 10 μg/mL) overnight at 4° C. Wells were washed with PBS, blocked with blocking buffer (3% BSA in PBS), washed six times with cold PBST (PBS+0.1% [v/v] Tween-20), then incubated with […] phage peptide library Ph.D.-12 for 2 hours at RT. […]
The NGS data analysis is an imperative approach to filter out all the non-specific binders and identify the putative binders. In addition, NGS also allows us to perform deeper quantitative analysis, such as calculating the frequency of amino acids distribution in each position of the peptide sequence, consensus motif and target unrelated peptides. […] This is highly useful as we can follow how the read of a peptide evolves or changes with the rounds of biopanning. […] The total number of sequences and the corresponding number of reads for each DNA sequence are recorded in a separate CSV file. […] Due to codon degeneracy, different codons can translate into same amino acids, thus after translation identical sequences exist with different reads. […]

For test [2], the target named is T2, human EGF receptor variant III (EGFRvIII) on CLTH/EGFRvIII cells (human, UniProt P00533 25-1210).
T2 construct: whole, on cells
Briefly: flow cytometry, normalized MFI on EGFRvIII cells over normalized MFI on EGFR WT cells. The protocol:
On FITC-Ahx-peptides. Flow cytometry analysis was also performed to quantitatively analyze the binding affinity of the synthetized peptides to the different cell types. […] The next day, cells were treated with FITC-Ahx-peptides using a stock solution in pure DMSO at 5 mM to reach a final concentration of 10 µM (final percentage of DMSO of 0.2%). Plates were incubated for 20 min at RT. Cells were detached from the plates by a PBS fush, transferred to FACS tubes and washed 2 times with 4 mL of PBS. Cells were stained with LIVE/DEAD™ Fixable Near-IR Dead Cell Stain Kit (Thermofisher) as a viability marker. Cells were analyzed by flow cytometry on a MACSQuant Analyser 16 (Miltenyi Biotec) using the MACS Quantify software to acquire and process the data. LIVE/DEAD™ Fixable dye was excited at 640 nm and fluorescence was collected with the 785/62 nm filter. FITC was excited at 488 nm and fluorescence was collected with the 525/50 nm filter. Viable cells were gated, FITC fluorescence intensity was recorded and the mean fluorescence intensity (MFI) was measured. MFI values were then normalized by substracting MFI from blank cells and dividing by the correction factor determined using a spectrofluorimeter.

As for “NPIVRSAEDGQL (Negative hit peptide) [negative hit peptide from biopanning]”, the “enrichment on NGS” value in test [1] is recorded as “didn't show any significant enrichment”.

B1: FITC-Ahx-YHWYGYTPENVI-CONH2 (peptide)
peptide: {FITC-Ahx}-YHWYGYTPENVI-NH2
SMILES: CC[C@H](C)[C@H](NC(=O)[C@@H](NC(=O)[C@H](CC(N)=O)NC(=O)[C@H](CCC(=O)O)NC(=O)[C@@H]1CCCN1C(=O)[C@@H](NC(=O)[C@H](Cc1ccc(O)cc1)NC(=O)CNC(=O)[C@H](Cc1ccc(O)cc1)NC(=O)[C@H](Cc1c[nH]c2ccccc12)NC(=O)[C@H](Cc1c[nH]cn1)NC(=O)[C@H](Cc1ccc(O)cc1)NC(=O)CCCCCNC(=S)Nc1ccc2c(c1)C(=O)OC21c2ccc(O)cc2Oc2cc(O)ccc21)[C@@H](C)O)C(C)C)C(N)=O
For B1, the “Normalized MFI ratio vIII/WT” value in test [2] was 2.1.
